Data published in patent EP4814014A1, “BINDING MOLECULE AND ANTIBODY-DRUG CONJUGATE AND USE THEREOF” (priority 2023, dated 2025).
Numbering of substitutions follows the chain as printed. In names and notes the source's numbering stands.

What was measured:
human EGFR on cells [1] = biological target: T1, human EGFR on cells (human, UniProt P00533 25-1210); assay: FACS, VHH-His on MDA-MB-468 cells
T1 construct: whole, on cells; the cell line is named under assay; also called CHO-S-EGFR; CHOK1-huEGFR

human EGFR on cells [2] = biological target: T1, human EGFR on cells; assay: FACS, VHH-His on CHOK1-huEGFR cells
[3] = biological target: Cyno EGFR antigen (SPR of Example 4.4) (cynomolgus monkey, UniProt A0A2K5WK39 25-645); assay: SPR method I, antigen on CM5 chip, VHH-His injected, 1:1 model
[4] = biological target: Human EGFR antigen (SPR of Example 4.4) (human, UniProt P00533 25-645); assay: as above
human cMet on cells [5] = biological target: T2, human cMet on cells (human, UniProt P08581 25-1390); assay: FACS, VHH-His on MKN45 cells
T2 construct: whole, on cells; Cell lines: CHO-S-cMet, CHOK1-hucMet, EBC-1, MKN45, NCI-H1975; the cell line is named under assay; also called CHO-S-cMet; CHOK1-hucMet

human cMet on cells [6] = biological target: T2, human cMet on cells; assay: FACS competition on EBC-1 cells, HGF-His as the ligand detected, VHH-Fc from 100 nM
human cMet on cells [7] = biological target: T2, human cMet on cells; assay: FACS, VHH-His on MKN45 cells; remark: listed apart in the source
human cMet on cells [8] = biological target: T2, human cMet on cells; assay: FACS, VHH-His on CHOK1-hucMet cells
human cMet on cells [9] = biological target: T2, human cMet on cells; assay: FACS, VHH-His on EBC-1 cells
[10] = biological target: T3, Cynomolgus monkey cMet antigen (cynomolgus monkey, UniProt A0A2K5UM36 25-932); assay: SPR method I, antigen on CM5 chip, VHH-His injected, 1:1 model
T3 construct: treated as one molecule; also called cynomolgus monkey cMet-His antigen; Cyno cMet

Human cMet antigen = biological target: T4, Human cMet antigen (human, UniProt P08581 25-932); assay: as above
T4 construct: treated as one molecule; also called Human cMet-His antigen

[11] = biological target: T5, cynomolgus monkey cMet-his (ECD, Met1-Thr932) (cynomolgus monkey, UniProt A0A2K5UM36 25-932); assay: SPR, antigen amine-coupled on GLM chip, antibody injected, 1:1 model
T5 construct: Bought; range as printed includes Met1

[12] = biological target: T6, human cMet-his (ECD, Met1-Thr932) (human, UniProt P08581 25-932); assay: as above
T6 construct: Bought; range as printed includes Met1

[13] = biological target: T7, human EGFR-his (ECD, Met1-Ser645) (human, UniProt P00533 25-645); assay: as above
T7 construct: range 1-645; Bought; range as printed includes Met1

[14] = biological target: T8, cynomolgus monkey EGFR-his (ECD, Met1-Ser645) (cynomolgus monkey, UniProt A0A2K5WK39 1-645); assay: as above
T8 construct: range 1-645; Bought; range as printed includes Met1

T6 sequence (P08581 25-932): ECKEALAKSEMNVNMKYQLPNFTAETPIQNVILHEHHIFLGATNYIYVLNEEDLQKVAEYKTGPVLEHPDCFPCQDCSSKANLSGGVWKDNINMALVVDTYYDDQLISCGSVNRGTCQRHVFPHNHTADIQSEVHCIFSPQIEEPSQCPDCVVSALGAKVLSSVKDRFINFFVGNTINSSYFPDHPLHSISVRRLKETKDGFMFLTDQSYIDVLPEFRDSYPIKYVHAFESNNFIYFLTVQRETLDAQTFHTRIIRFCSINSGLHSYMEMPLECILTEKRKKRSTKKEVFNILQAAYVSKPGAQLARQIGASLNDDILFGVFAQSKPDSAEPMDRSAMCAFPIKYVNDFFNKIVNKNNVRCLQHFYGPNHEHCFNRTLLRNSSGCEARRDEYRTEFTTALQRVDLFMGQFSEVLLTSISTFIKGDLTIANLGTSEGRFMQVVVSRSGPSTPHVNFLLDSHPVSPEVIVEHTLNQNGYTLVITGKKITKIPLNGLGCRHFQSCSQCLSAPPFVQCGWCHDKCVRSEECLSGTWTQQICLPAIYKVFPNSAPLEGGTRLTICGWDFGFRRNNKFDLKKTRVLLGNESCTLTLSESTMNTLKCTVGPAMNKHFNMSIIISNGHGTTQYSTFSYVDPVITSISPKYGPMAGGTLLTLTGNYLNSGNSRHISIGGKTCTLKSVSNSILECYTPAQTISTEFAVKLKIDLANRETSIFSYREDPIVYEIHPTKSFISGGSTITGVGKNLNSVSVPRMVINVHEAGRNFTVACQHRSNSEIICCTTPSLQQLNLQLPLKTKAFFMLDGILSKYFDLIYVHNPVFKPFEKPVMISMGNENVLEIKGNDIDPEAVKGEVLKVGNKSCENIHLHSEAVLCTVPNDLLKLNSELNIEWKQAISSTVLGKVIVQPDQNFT
T4 sequence (P08581 25-932): as above
T2 sequence (P08581 25-1390): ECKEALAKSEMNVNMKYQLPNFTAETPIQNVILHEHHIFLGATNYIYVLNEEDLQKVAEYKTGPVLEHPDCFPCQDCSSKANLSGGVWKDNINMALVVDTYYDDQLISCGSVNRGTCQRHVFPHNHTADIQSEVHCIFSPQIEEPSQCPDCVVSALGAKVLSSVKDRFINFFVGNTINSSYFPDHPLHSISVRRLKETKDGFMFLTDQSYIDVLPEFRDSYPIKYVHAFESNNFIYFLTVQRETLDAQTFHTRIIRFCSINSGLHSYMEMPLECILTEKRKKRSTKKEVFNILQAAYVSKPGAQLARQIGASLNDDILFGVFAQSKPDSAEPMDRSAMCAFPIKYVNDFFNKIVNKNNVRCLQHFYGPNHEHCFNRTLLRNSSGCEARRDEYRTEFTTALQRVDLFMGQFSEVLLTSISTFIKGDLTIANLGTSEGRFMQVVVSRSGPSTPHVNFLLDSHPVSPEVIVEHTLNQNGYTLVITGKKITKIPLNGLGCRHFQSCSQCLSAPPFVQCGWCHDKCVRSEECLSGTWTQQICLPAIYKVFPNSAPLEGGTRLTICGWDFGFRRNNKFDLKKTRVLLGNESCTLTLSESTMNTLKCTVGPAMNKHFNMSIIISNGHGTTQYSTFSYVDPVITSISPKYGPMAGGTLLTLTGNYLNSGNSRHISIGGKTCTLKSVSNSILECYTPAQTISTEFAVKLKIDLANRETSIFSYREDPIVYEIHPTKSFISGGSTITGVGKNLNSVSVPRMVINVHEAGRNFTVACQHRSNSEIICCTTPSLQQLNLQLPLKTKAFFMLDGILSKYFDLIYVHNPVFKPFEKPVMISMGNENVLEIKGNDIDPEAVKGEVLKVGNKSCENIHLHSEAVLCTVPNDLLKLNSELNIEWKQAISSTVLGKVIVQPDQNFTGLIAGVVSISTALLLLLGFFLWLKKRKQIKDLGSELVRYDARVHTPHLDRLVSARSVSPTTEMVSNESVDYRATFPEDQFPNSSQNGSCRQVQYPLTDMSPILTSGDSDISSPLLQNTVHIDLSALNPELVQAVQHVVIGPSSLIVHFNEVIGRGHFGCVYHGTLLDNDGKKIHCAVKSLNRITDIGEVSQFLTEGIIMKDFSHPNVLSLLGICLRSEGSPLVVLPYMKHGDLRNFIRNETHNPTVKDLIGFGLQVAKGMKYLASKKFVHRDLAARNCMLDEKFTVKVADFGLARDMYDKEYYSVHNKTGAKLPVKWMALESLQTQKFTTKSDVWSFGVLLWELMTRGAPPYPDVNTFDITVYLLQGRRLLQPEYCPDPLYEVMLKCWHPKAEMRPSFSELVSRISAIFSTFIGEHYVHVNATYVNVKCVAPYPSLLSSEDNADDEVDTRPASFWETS
T3 sequence (A0A2K5UM36 entry or part of it limits assumed, form in doubt): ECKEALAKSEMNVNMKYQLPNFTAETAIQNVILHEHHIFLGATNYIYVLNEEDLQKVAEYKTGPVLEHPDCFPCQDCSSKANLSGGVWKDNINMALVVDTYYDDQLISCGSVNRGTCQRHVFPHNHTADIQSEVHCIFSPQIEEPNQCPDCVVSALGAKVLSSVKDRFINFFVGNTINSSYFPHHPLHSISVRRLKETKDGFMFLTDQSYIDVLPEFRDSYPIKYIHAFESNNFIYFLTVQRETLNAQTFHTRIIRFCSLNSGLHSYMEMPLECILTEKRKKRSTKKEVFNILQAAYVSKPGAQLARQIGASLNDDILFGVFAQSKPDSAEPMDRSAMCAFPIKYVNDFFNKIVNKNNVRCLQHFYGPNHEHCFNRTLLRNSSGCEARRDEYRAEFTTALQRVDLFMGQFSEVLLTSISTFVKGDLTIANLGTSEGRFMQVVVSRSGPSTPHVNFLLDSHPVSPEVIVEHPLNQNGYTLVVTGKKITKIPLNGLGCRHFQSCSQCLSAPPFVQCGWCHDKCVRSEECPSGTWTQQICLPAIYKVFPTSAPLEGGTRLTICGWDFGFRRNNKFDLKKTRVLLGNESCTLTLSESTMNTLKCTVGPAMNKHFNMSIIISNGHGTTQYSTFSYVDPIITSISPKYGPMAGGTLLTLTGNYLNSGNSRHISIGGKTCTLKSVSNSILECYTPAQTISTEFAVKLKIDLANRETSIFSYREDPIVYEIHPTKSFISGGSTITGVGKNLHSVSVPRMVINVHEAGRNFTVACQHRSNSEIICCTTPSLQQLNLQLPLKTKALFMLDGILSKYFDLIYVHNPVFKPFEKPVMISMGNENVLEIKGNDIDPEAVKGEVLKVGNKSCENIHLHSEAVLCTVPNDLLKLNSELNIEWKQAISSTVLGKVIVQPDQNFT
T5 sequence (A0A2K5UM36 entry or part of it limits assumed, form in doubt): as above

B1: V-n10A1 anti-EGFR VHH-His (VHH, not shown: small tags and cut ends)
VHH: QVQLVESGGGLVQAGGSLRLSCAASGRTGSLHAMGWFRQAPGKERERVATLNLSDGSAVTADSVKGRFTISTDNTKNSVYLQMNSLKPEDTAVYYCTASRSPSGIRYYKPDYWGQGTQVTVSS
notes: Monovalent parent VHH
Human EGFR on cells [1]
  Maximum MFI value: 5830 MFI
Human EGFR on cells [1]; record 2
  Maximum MFI value: 5160 MFI
Human EGFR on cells [2]
  Maximum MFI value: 2760 MFI
[3]
  Kd: 17.2 nM
  koff: 0.01 s⁻¹
  kon: 581000 M⁻¹ s⁻¹
[4]
  Kd: 37.4 nM
  koff: 0.0258 s⁻¹
  kon: 691000 M⁻¹ s⁻¹

B2: ppzn10A1_m6m5.m1 (VHH, not shown: small tags and cut ends)
VHH: B1 VHH with A14P, N52R, G56V, T75S, K87R, P88A, Q118L
Human EGFR on cells [2]
  Maximum MFI value: 2470 MFI

B3: pzn10A1_m6m5 (VHH, not shown: small tags and cut ends)
VHH: B1 VHH with A14P, G56V, T75S, K87R, P88A, Q118L
Human EGFR on cells [2]
  Maximum MFI value: 3570 MFI

B4: ppzn10A1_m6m5.m3 (VHH, not shown: small tags and cut ends)
VHH: B1 VHH with A14P, N52Q, G56V, T75S, K87R, P88A, Q118L
Human EGFR on cells [2]
  Maximum MFI value: 4770 MFI

B5: 7A12-M1 (VHH, not shown: small tags and cut ends)
VHH: EVQLVESGGGLVQPGGSLRLSCAASGNIFSSNHMGWVRQAPGKGLEWVAYITTREITNYADSVKGRFTISRDNSKNTVYLQMNSLRAEDTAVYYCIADQSREIRRSWGQGTLVTVSS
notes: Humanized anti-cMet VHH-His
Human cMet on cells [5]
  EC50: 88.1 nM
  Maximum MFI value: 56600 MFI

B6: V-n9A10 anti-cMet VHH-Fc (Fc fusion, not shown: a dimerising Fc or GST)
chain: QVQLVESGGGLVQPGGSLRLSCEASGFTFSSYVMSWYRQAPGKERELVALISSTTGSSTKYGDSVKGRFTISRDNAKNTVYLQMNSLKPEDTAVYYCNAMIGWNNHWGQGTHVTVSS
Human cMet on cells [6]
  MFI value at the highest concentration: 77200 MFI
  ratio of MFI value at the highest concentration to that at the lowest concentration: 1.14

B7: V-n5B10 anti-EGFR VHH-His (VHH, not shown: small tags and cut ends)
VHH: AVQLVDSGGGLVQPGGSLRLDCSASGTIIGTYTMAWYRQAPGKQREMVAIITPGGGSHHADSVKGRFTISRDNGKSTVYLQMSSLKFEDTAVYYCNAKARWGTTEYWGQGTQVTVSS
notes: Monovalent parent VHH
Human EGFR on cells [1]
  EC50: 15 nM
  Maximum MFI value: 111000 MFI
[3]
  Kd: 7.36 nM
  koff: 0.00384 s⁻¹
  kon: 522000 M⁻¹ s⁻¹
[4]
  Kd: 23.2 nM
  koff: 0.00536 s⁻¹
  kon: 232000 M⁻¹ s⁻¹

B8: zn9B8.m2 (VHH, not shown: small tags and cut ends)
VHH: EVQLLESGGGLVQPGGSLRLSCAASGLTFSYYAMAWFRQAPGKEREFVAAINWNGGNTYNTDSVKGRFTISRDNSKNTVYLQMNSLTPEDTAVYYCAVRYNSASYLVARSSDYNYWGQGTLVTVSS
notes: Humanized anti-EGFR VHH-His
Human EGFR on cells [1]
  EC50: 2.49 nM
  Maximum MFI value: 95800 MFI
Human EGFR on cells [2]
  EC50: 3.94 nM
  Maximum MFI value: 84300 MFI

B9: pzn9B8.m2.m12 (VHH, not shown: small tags and cut ends)
VHH: B8 VHH with G55A, S102A
notes: Humanized + PTM-removal anti-EGFR VHH-His
Human EGFR on cells [2]
  EC50: 4.96 nM
  Maximum MFI value: 85700 MFI

B10: pzn9B8.m2.m11 (VHH, not shown: small tags and cut ends)
VHH: B8 VHH with G55Q, S102Q
notes: Humanized + PTM-removal anti-EGFR VHH-His; also called hu9B8
Human EGFR on cells [2]
  EC50: 3.39 nM
  Maximum MFI value: 80100 MFI

B11: pn7A12.N32X.m1 (VHH, not shown: small tags and cut ends)
VHH: EVQLVESGGGLVQAGGSLRLSCVASGNIFSSYHMGWFRQAPGKQREFIAYITTREITNYADSVKGRFTISRDNTKNTVYLQMNVLKPEDTAVYYCIADQSREIRRSWGQGTQVTVSS
notes: PTM-removal anti-cMet VHH-His
Human cMet on cells [7]
  EC50: 5.1 nM
  Maximum MFI value: 40400 MFI

B12: 7A12-M4 (VHH, not shown: small tags and cut ends)
VHH: B11 VHH with V12I, V23T, Y32N, T74S, V84N, K86R, P87S, Q112L
notes: Humanized anti-cMet VHH-His
Human cMet on cells [5]
  EC50: 4.11 nM
  Maximum MFI value: 44700 MFI

B13: pn7A12.N32X.m6 (VHH, not shown: small tags and cut ends)
VHH: B11 VHH with Y32D
notes: PTM-removal anti-cMet VHH-His
Human cMet on cells [7]
  EC50: 4.45 nM
  Maximum MFI value: 44700 MFI

B14: pn7A12.N32X.m4 (VHH, not shown: small tags and cut ends)
VHH: B11 VHH with Y32F
notes: PTM-removal anti-cMet VHH-His
Human cMet on cells [7]
  EC50: 4.96 nM
  Maximum MFI value: 38000 MFI

B15: dpzn7A12m4.m1_3 (VHH, not shown: small tags and cut ends)
VHH: B11 VHH with V12I, V23T, T74A, V84S, K86R, Q112L
notes: Humanized + PTM removal + primary immunogenicity removal, anti-cMet VHH-His
Human cMet on cells [8]
  EC50: 0.809 nM
  Maximum MFI value: 63400 MFI

B16: dpzn7A12m4.m1_1 (VHH, not shown: small tags and cut ends)
VHH: B11 VHH with V12I, V23T, T74S, V78L, V84S, K86R, P87A, Q112L
notes: as for B15
Human cMet on cells [8]
  EC50: 0.716 nM
  Maximum MFI value: 73900 MFI

B17: pn7A12.N32X.m3 (VHH, not shown: small tags and cut ends)
VHH: B11 VHH with Y32H
notes: PTM-removal anti-cMet VHH-His
Human cMet on cells [7]
  EC50: 4.16 nM
  Maximum MFI value: 49600 MFI

B18: VHH10 (VHH, not shown: small tags and cut ends)
VHH: QSQLVESGGGLVKPGGSLRLSCVASGFTISRSIMSWYRQAPGKERDWVASIGSAGNTNYVDSVKGRFTISRDNAKNSLYLQMNSLRAEDTAVYYCKTTLAVSFSEYWGQGTLVTVSS
notes: Humanized 9A2 anti-cMet VHH-His; also called hu9A2
Human cMet on cells [9]
  EC50: 1.63 nM
  Maximum MFI value: 233000 MFI

B19: V-n9A2 anti-cMet VHH-His (VHH, not shown: small tags and cut ends)
VHH: QSQLAESGGGLVQSGGSLGLSCVASGFTISRSIMSWYRQPPGKERDWVASIGSAGNTNYVDSVKGRFTISRDVAKNTVYLQMNSLKPEDTAVYYCKTTLAVSFSEYWGQGTQVTVSS
notes: Monovalent parent VHH
[10]
  Kd: 70.3 nM
  koff: 0.0072 s⁻¹
  kon: 102000 M⁻¹ s⁻¹
Human cMet antigen
  Kd: 16 nM
  koff: 0.0029 s⁻¹
  kon: 181000 M⁻¹ s⁻¹
Human cMet on cells [9]
  EC50: 1.56 nM
  Maximum MFI value: 291000 MFI

B20: VHH9 (VHH, not shown: small tags and cut ends)
VHH: B18 VHH with Q1E, V5L, K13Q, N73V, A74S, S77T
notes: Humanized 9A2 anti-cMet VHH-His
Human cMet on cells [9]
  EC50: 1.63 nM
  Maximum MFI value: 194000 MFI

B21: VHH8 (VHH, not shown: small tags and cut ends)
VHH: B18 VHH with Q1E, V5L, K13Q, A74S, S77T, L78V
notes: as for B20
Human cMet on cells [9]
  EC50: 2.5 nM
  Maximum MFI value: 143000 MFI

B22: V-15 (10A1-7A12-9A2) (bispecific antibody)
chain: QVQLVESGGGLVQAGGSLRLSCAASGRTGSLHAMGWFRQAPGKERERVATLNLSDGSAVTADSVKGRFTISTDNTKNSVYLQMNSLKPEDTAVYYCTASRSPSGIRYYKPDYWGQGTQVTVSSGGGGSEVQLVESGGGLVQAGGSLRLSCVASGNIFSSNHMGWFRQAPGKQREFIAYITTREITNYADSVKGRFTISRDNTKNTVYLQMNVLKPEDTAVYYCIADQSREIRRSWGQGTQVTVSSGGGGSGGGGSQSQLAESGGGLVQSGGSLGLSCVASGFTISRSIMSWYRQPPGKERDWVASIGSAGNTNYVDSVKGRFTISRDVAKNTVYLQMNSLKPEDTAVYYCKTTLAVSFSEYWGQGTQVTVSS
notes: Single-chain trispecific anti-EGFR/cMet antibody
[11]
  Kd: 4.49 nM
  koff: 0.000831 s⁻¹
  kon: 185000 M⁻¹ s⁻¹
[12]
  Kd: 6.61 nM
  koff: 0.00125 s⁻¹
  kon: 189000 M⁻¹ s⁻¹
[13]
  Kd: 28.3 nM
  koff: 0.00943 s⁻¹
  kon: 334000 M⁻¹ s⁻¹
[14]
  Kd: 22.8 nM
  koff: 0.00764 s⁻¹
  kon: 335000 M⁻¹ s⁻¹
